Patent US20120172306A1, “Use of HASF as a Protective Agent Against Ischemic Tissue Damage” (Duke University, priority 2009, published 2012)

What was measured:
[1] = system: PKC, Raf, ERK 1/2, PDK1 phosphorylation in adult rat cardiomyocytes; experiment: Western blot analysis of signaling protein phosphorylation (PKC/ERK pathway); type: cell-based
Method: FIG. 3A is a photograph of an electrophoretic gel. HASF activates the PKC pathway. A. Western blots analysis for various signaling proteins. Serum-starved adult rat cardiomyocytes were stimulated with 100 nM HASF recombinant protein for various time courses. Cell lysate was collected and the proteins were resolved by SDS-PAGE. Insulin from bovine pancreas was used as a positive control. min: minutes of treatment.
FIG. 3B is a photograph of an immunoblot. Serum-starved adult rat cardiomyocytes were pre-treated with 3 μM PKC inhibitors BIM, Gö6976, or Gö6983 for 30 minutes, then stimulated with 100 nM HASF recombinant protein for 5-10 min and cells were harvested. Total cell lysates were used to analyze the levels of ERK1/2 phosphorylation by western blot analysis.
FIG. 4A is a photograph of an immunoblot. Western blot analysis for PKC E and PKC delta phosphorylation on total cell lysates from serum-starved adult rat cardiomyocytes stimulated with 100 nM HASF recombinant protein at 5 and 30 min. HASF b1 and b2 represent different batches of recombinant protein. PMA was used as positive control.
FIG. 4B is a photograph of an immunoblot. Western blot analysis for ERK1/2 phosphorylation on total cell lysates from adult rat cardiomyocytes pre-treated with 10 pM PKC epsilon translocation inhibitor peptide for 20 min, then 100 nM HASF recombinant protein was added for 5 min or 10 min.
FIGS. 8A-B are photographs of immunoblots. Western blot analysis for PKC a/b and PKC theta phosphorylation on total cell lysates from serum-starved adult rat cardiomyocytes stimulated with 100 nM HASF recombinant protein for the indicated times. HASF batch 1 and 2 represent different batches of recombinant protein. PMA was used as positive control.
Rabbit polyclonal antibodies for phospho-pan PKC, phospho-ERK1/2, phospho-raf, phosphor-PDK1, total Akt were obtained from Cell Signaling Tech. Rabbit polyclonal antibody for phospho-PKC epsilon, phospho-Bad, and GAPDH was obtained from Abeam. HRP-conjugated goat anti-rabbit secondary antibody was obtained from Cell Signaling Tech.

[2] = system: primary embryonic rat neurons; experiment: Caspase 9 assay in H2O2 challenged primary neurons; type: cell-based; settings: H2O2 (50 μM) 30 min
Method: FIG. 2E is a bar graph showing caspase activity in primary neurons. Embryonic rat neuronal cells were pre-incubated ±100 nM of HASF recombinant protein for 30 min, and then challenged with 200 μM of H2O2 […]. Apoptosis was determined by caspase 9 levels. The results from two independents experiments are shown. ** P<0.01. Data are presented as means±standard deviation of triplicates.
FIG. 4E is a bar graph showing relative caspase activity in primary neurons. Apoptosis as determined by detection of Caspase-9 activity on primary neuron pre-treated with 178 μM PKC translocation inhibitor peptide for 10 minutes and then with 100 nM of HASF for 30 minutes. Thereafter, cells were challenged with 200 μM H2O2 for 3 hours. All samples were measured in replicas N-4 and the experiments was repeated twice. *P<0.05 vs. non-HASF treated cells.
Embryonic rat cortex tissue was purchased from Neuromics (Edina, Minn.). Primary neurons were isolated, cultured on poly-D-lysine coated glass slides according to provided instructions and allowed to grow for 5 days in complete neurobasal media. Cells were treated with PKC-epsilon inhibitor and recombinant protein HASF as described above for cardiomyocytes). For induction of stress the cells were challenged with H202 (50 μM) for 30 min followed by 3 hours of recovery at 37° C. […]

H9C2 cardiac myoblasts = experiment: Annexin V/PI staining of H2O2 induced apoptosis; type: cell-based, rat; settings: 10 nM, 30 min pre-incubation, 100 μM H2O2 2 h
Method: FIG. 2A is a bar graph showing % apoptosis. H9C2 cardiac myoblasts were pre-incubated ±10 nM of HASF recombinant protein for 30 min, and then challenged with 100 μM of H2O2 for 2 h. Apoptosis was quantified on a flow cytometer with Annexin V and Propidium Iodine (PI) staining. The sum of Annexin V positive cells+Annexin V/PI double positive cells is presented as percentage (%) of total cells. Human recombinant IGF protein was used as a positive control.
Rat cardiac myoblasts-H9C2 cells were obtained from ATCC and cultured in DMEM medium containing 10% of FBS, supplemented with 2 mM of L-glutamine, 100 U/ml of penicillin and 100 μg/ml of streptomycin (Invitrogen). Cells were seeded one day before at 1×10^5/well in 6-well plates. The following day, the cells were treated for 30 min with 10 nM of HASF the recombinant protein, the MBP or PBS were used as controls. Then the cells were challenged with 100 μM of H2O2 for 2 h. The attached and floating cells were collected. H2O2 induced apoptosis was then analyzed on a flow cytometer for Annexin V/Propidium Iodine double staining with the Vybrant Apoptosis Assay Kit #2 (Invitrogen).

[3] = 100 nM, within 5-10 minutes of treatment

B1: HASF: Hypoxia regulated Akt MSC Factor, secreted protein encoded by C3orf58; recombinant human protein without N-signal sequence, SEQ ID NO:1 or 2 (protein, UniProt Q8NDZ4 36-430, looked up)
Divergent protein kinase …: LASWQRNELTDRRFLQLNKCPACFGTSWCRRFLNGQVVFEAWGRLRLLDFLNVKNVYFAQYGEPREGGRRRVVLKRLGSQRELAQLDQSICKRATGRPRCDLLQAMPRTEFARLNGDVRLLTPEAVEGWSDLVHCPSQRLLDRLVRRYAETKDSGSFLLRNLKDSERMQLLLTLAFNPEPLVLQSFPSDEGWPFAKYLGACGRMVAVNYVGEELWSYFNAPWEKRVDLAWQLMEIAEQLTNNDFEFALYLLDVSFDNFAVGPRDGKVIIVDAENVLVADKRLIRQNKPENWDVWYESKFDDCDKEACLSFSKEILCARATVDHNYYAVCQNLLSRHATWRGTSGGLLHDPPSEIAKDGRLEALLDECANPKKRYGRFQAAKELREYLAQLSNNVR
modifications: 6xHis tag
With B1 the “activity (phosphorylation) of the other PKC isoforms tested (PKC α/β, σ, σ/λ, θ)” value ([1]; 100 nM HASF) was “did not affect”, the “phosphorylation of PKCe” value ([1]; 100 nM HASF, 5 and 30 min) was “increased the phosphorylation of PKCe selectively” and the “phosphorylation of PDK1” value ([1]; 100 nM, 0-60 minutes) was “not increased”. The “phosphorylation of ERK 1/2” value [1, 3] was “increased dramatically”, the “phosphorylation of PKC” value [1, 3] was “increased dramatically” and the “phosphorylation of Raf” value [1, 3] was “increased dramatically”. For the same molecule, the “attenuation of Caspase 9 levels” value ([2]; 30 min pretreatment, P<0.05) was 20-40%, the “Caspase 9 levels in challenged neuronal cells” value ([2]; HASF 30 min) was “significantly reduced” and the “decrease of H2O2 induced apoptosis (Annexin V/PI staining)” value (H9C2 cardiac myoblasts) was ~50%.
